Measured values published in patent publication US12116387B2, “Antimicrobial peptides” (priority 2021, dated 2024).
“Also recorded” adds a separate entry of the source. Read-outs that look alike come from different tables or passages of the source.

What was measured:
mice = tested on: mice
Experimental: Therefore, the anti-infective activity of mast-MO was then tested in pre-clinical mouse models. First, the toxicity of a single dose of either mast-L or mast-MO administered peritoneally to mice was assessed in order to determine the range of concentrations to be used in subsequent animal experiments. The hemolytic activity of mast-MO (up to 200 μmoL^−1) against murine red blood cells (Table 6) was also tested prior to conducting animal experiments.
Systemic bacterial infection mouse model. Acute toxicity assay was performed based on the work of Navon-Venezia and co-workers (46). The experiment was performed by intraperitoneal (i.p.) injection of the tested peptides to groups of 10 C57BL/6 mice. Each mouse was injected with a 0.5 mL solution of freshly prepared of peptides in PBS. The doses of peptide administered per mouse were 0, 10, 30, 50, 70 and 90 mg Kg^−1 of body weight. Animals were directly inspected for adverse effects for 6 h, and mortality was monitored for 7 days thereafter. Differences between groups were analysed using the Fisher exact test (differences were considered to be statistically significant when the P value was <0.05). Briefly, E. coli ATCC8739 and E. coli 1812446 or S. aureus ATCC 29213 and S. aureus (MRSA) ATCC33591 were plated on tryptic soy agar plus 5% sheep blood (blood agar, Himedia, India) from a frozen stock. Following 24 h of incubation of the agar plate, three isolated colonies were transferred to 1 mL of BHI. The broth culture was incubated overnight (12-16 h) at 37° C. with shaking. […] Mice were challenged with either strain of E. coli ATCC8739 and E. coli 1812446 or S. aureus ATC29213 and S. aureus (MRSA) ATCC33591 in a final volume of 200 μL of PBS by intraperitoneal injection (i.p.). The day of challenge was designated as day 1 of the experiment. Three hours after bacterial injection, mice (n=5) were treated, intraperitoneally, with different concentrations of peptides (1, 5 or 10 mg Kg^−1), LL-37, gentamicin and 10 mg Kg^−1 of imipenem or PBS for 8 days. For bacterial load evaluation, 5 mice per group were used. Animals were humanely killed 24 h after bacterial administration. To detect bacterial colonization, the peritoneal lavage samples were collected under sterile conditions. The peritoneal lavage was obtained by washing the cavity with 5 mL of sterile PBS. Samples were diluted serially, and 100 μL of each dilution was spread in duplicate on appropriate agar plates for the count of developed colonies. Cytokine levels (i.e., IFN-γ, IL-6, IL−10, IL−12p70 and TNF-α) in the peritoneal lavage of the mice both in the absence and presence of peptide treatment were quantified by ELISA (Peprotech, USA) according to the manufacturer's instructions.

IL-12, TNFα, IL-6 = test: Cytokines in peritoneal fluid of infected mice (ELISA); type: in vivo, C57BL/6 mice; conditions: tracked for 48 h; mast-MO 10 mg Kg^−1, mast-L 5 mg Kg^−1
Experimental: […] PBS and imipenem (10 mg Kg^−1) were used as negative and positive controls, respectively. Data were expressed as mean±standard deviation. Statistical analysis was performed using Bonferroni test. ***p<0.001 as significant compared to the control.
To test whether the FLPII motif within the mast-MO sequence led to increased immunomodulatory and chemotactic properties with respect to mast-L, ELISA experiments were performed using the peritoneal fluid collected from mice (FIG. 5a). C57BL/6 mice were infected with both Gram-negative and Gram-positive pathogens and administered either mast-L or mast-MO intraperitoneally. For mice infected with E. coli ATCC8739, we monitored the peritoneal cavity to detect and quantify the release and presence of several immune mediators (FIG. 4E). […] This effect was similar to the positive control group of mice treated with […] (TGA) (FIG. 4B). […] After 24 h, the leukocyte recruitment levels in mast-MO-treated mice dropped to ˜10^6, likely attributed to the resolution of the infection by the peptide (FIGS. 5B and 5C). […] We monitored, via ELISAs, the cytokine profiles present within the peritoneal cavity of mice infected with E. coli ATCC8739 and S. aureus ATCC29213 (FIGS. 4E and FIG. 4F, respectively) and treated with a single dose of peptide. […]

[1] = tested on: murine macrophages monocytes (RAW 264.7); test: Cytotoxicity against RAW 264.7 cells (MTT); type: cell-based; conditions: RAW 264.7 (Table 2)
[2] = tested on: E. coli and S. aureus strains; test: Systemic infection experiments, summary over all strains; conditions: 10 mg Kg^−1
Experimental: To determine the anti-infective activity of mast-MO in a pre-clinical mouse model, the ability of the peptide to kill pathogenic and drug-resistant E. coli and S. aureus strains was tested in a systemic sepsis infection mouse model (FIG. 5). The minimal bacterial load resulting in a lethal dose (LD100) 24 h post-intraperitoneal injection was first determined. […] Mice were infected with the LD100 of bacteria and treated 3 h post-infection with either mast-L (1 and 5 mg Kg^−1) or mast-MO (1, 5 and 10 mg Kg^−1), which were also administered intraperitoneally.
Systemic bacterial infection mouse model. […] The experiment was performed by intraperitoneal (i.p.) injection of the tested peptides to groups of 10 C57BL/6 mice. Each mouse was injected with a 0.5 mL solution of freshly prepared of peptides in PBS. The doses of peptide administered per mouse were 0, 10, 30, 50, 70 and 90 mg Kg^−1 of body weight. Animals were directly inspected for adverse effects for 6 h, and mortality was monitored for 7 days thereafter. Differences between groups were analysed using the Fisher exact test (differences were considered to be statistically significant when the P value was <0.05). Briefly, E. coli ATCC8739 and E. coli 1812446 or S. aureus ATCC 29213 and S. aureus (MRSA) ATCC33591 were plated on tryptic soy agar plus 5% sheep blood (blood agar, Himedia, India) from a frozen stock. Following 24 h of incubation of the agar plate, three isolated colonies were transferred to 1 mL of BHI. The broth culture was incubated overnight (12-16 h) at 37° C. with shaking. […] Mice were challenged with either strain of E. coli ATCC8739 and E. coli 1812446 or S. aureus ATC29213 and S. aureus (MRSA) ATCC33591 in a final volume of 200 μL of PBS by intraperitoneal injection (i.p.). The day of challenge was designated as day 1 of the experiment. Three hours after bacterial injection, mice (n=5) were treated, intraperitoneally, with different concentrations of peptides (1, 5 or 10 mg Kg^−1), LL-37, gentamicin and 10 mg Kg^−1 of imipenem or PBS for 8 days. For bacterial load evaluation, 5 mice per group were used. […]

[3] = tested on: E. coli ATCC8739 and clinical isolate E. coli 1812446 (KPC-positive); test: Systemic sepsis infection mouse model, E. coli strains; type: in vivo; conditions: 5 mg Kg^−1 i.p., 3 h post-infection
Experimental: FIG. 5A-5I pertains to a study of the anti-infective activity of mast-MO against Gram-negative and Gram-positive pathogens in a lethal sepsis infection model. In FIG. 5A mice were infected with bacteria, treated with each peptide or antibiotic and monitored for 8 days. Survival and cell counts after 24 h, respectively, are shown for E. coli ATCC8739 (2×10^4 CFU/mL inoculum) FIG. 5B and FIG. 5C, S. aureus ATCC29213 (2×10^9 CFU/mL inoculum) FIG. 5D and FIG. 5E, E. coli 1812446 (KPC-positive) (2×10^4 CFU inoculum) FIG. 5F and FIG. 5G, and S. aureus (MRSA) ATCC33591 (2×10^9 CFU inoculum) FIG. 5H and FIG. 5I. Mice were treated intraperitoneally (i.p.) with 1, 5 and 10 mg Kg^−1 of mast-L, mast-MO or 10 mg Kg^−1 of the antibiotics gentamicin and imipenem. PBS was used as a control for the untreated group of mice. Treatments were administered 3 h post-infection. Data are expressed as the mean±standard deviation. Statistical analysis was performed using Bonferroni test. […], **p<0.01, ***p<0.001 compared to the untreated control.
Systemic bacterial infection mouse model. […] Animals were humanely killed 24 h after bacterial administration.

## NLKALAALAKKIL [Mast-L]
mice; Dose 5 mg Kg^−1, five mice per group
  Gross toxicity, number of mice (TL): 2 (TL-1)
mice; Dose 10 mg Kg^−1, five mice per group
  Gross toxicity, number of mice (TL): 5
mice; single dose, peritoneally
  Dose above which highly toxic in preliminary mouse experiments: higher than 10 mg Kg^−1
IL-12, TNFα, IL-6
  Pro-inflammatory cytokines IL-12, TNFα and IL-6 in the peritoneal cavity: repressed
[1]
  Cytotoxic activity, Peptide Concentration: 10 µmol/L
[2]
  Toxicity when injected systemically in the infection model: had to be euthanized; also recorded: led to toxicity
[3]
  Survival: 40 to 60%
